According to the supplement of paper PMC7125110:
± gives the standard error. For some assays here: Variants at the floor of the assay were thinned out.

B1: glmS ribozyme (parent)
chain: AUAAAAGCGCCAGAACUACAGAAAUGUAGUUGACGAGGAGGAGGUUUAUCGAAUUUUCGGCGGAUGCCUCCAAA

Experiments:
Conditions in all cases: with glucosamine-6-phosphate
glucosamine-6-phosphate [1] = variants of: B1; assay: kcat; higher = faster cleavage; RNA array
In short: (§1)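 Barcoded glmS ribozyme variants on sequenced MiSeq chips were transcribed in situ by E. coli RNA polymerase and tracked through a hybridised Cy3 probe at 37 °C. Glucosamine-6-phosphate (40 μM to 10 mM) in HEPES/KCl/Mg(OAc)2 buffer was flowed in, and tiles were imaged over ~14 h. Signals were normalised to baseline and to non-cleaving reference variants; per-tile medians were fit to one- or two-exponential decays to give kobs. kcat and KM came from weighted Michaelis–Menten fits across concentrations.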

glucosamine-6-phosphate [2] = variants of: B1; assay: self-cleavage kobs at 40 uM GlcN6P; higher = faster cleavage; RNA array
In short: as §1

glucosamine-6-phosphate [3] = variants of: B1; assay: self-cleavage kobs at 640 uM GlcN6P; higher = faster cleavage; RNA array
In short: as §1

glucosamine-6-phosphate [4] = variants of: B1; assay: self-cleavage kobs at 2500 uM GlcN6P; higher = faster cleavage; RNA array
In short: as §1

glucosamine-6-phosphate [5] = variants of: B1; assay: self-cleavage kobs at 10000 uM GlcN6P; higher = faster cleavage; RNA array
In short: as §1

glucosamine-6-phosphate [6] = variants of: B1; assay: KM; higher = weaker cofactor use; RNA array
In short: as §1

glucosamine-6-phosphate [7] = variants of: B1; assay: self-cleavage kobs at 160 uM GlcN6P; higher = faster cleavage; RNA array
In short: as §1

| Variant | kcat (glucosamine-6-phosphate [1]) | self-cleavage kobs at 40 uM GlcN6P (glucosamine-6-phosphate [2]) | self-cleavage kobs at 640 uM GlcN6P (glucosamine-6-phosphate [3]) | self-cleavage kobs at 2500 uM GlcN6P (glucosamine-6-phosphate [4]) | self-cleavage kobs at 10000 uM GlcN6P (glucosamine-6-phosphate [5]) | KM (glucosamine-6-phosphate [6]) | self-cleavage kobs at 160 uM GlcN6P (glucosamine-6-phosphate [7]) |
| --- | --- | --- | --- | --- | --- | --- | --- |
| U46G G66A C70G | 0.000845 ± 0.00032 s⁻¹ | 6.36e-05 ± 1.7e-05 s⁻¹ | 0.000267 ± 6.1e-05 s⁻¹ | 0.00046 ± 0.00016 s⁻¹ | 0.000907 ± 0.00016 s⁻¹ | – | – |
| U46G U54A | 0.00945 ± 0.0015 s⁻¹ | 0.000165 ± 2.1e-05 s⁻¹ | 0.00207 ± 0.00034 s⁻¹ | 0.00434 ± 0.0016 s⁻¹ | 0.00766 ± 0.0012 s⁻¹ | 2450 ± 490 µM | 0.000444 ± 0.00011 s⁻¹ |
| U46G C71U | 0.00721 ± 0.0015 s⁻¹ | 0.00018 ± 1.7e-05 s⁻¹ | 0.00219 ± 0.00026 s⁻¹ | 0.00497 ± 0.00059 s⁻¹ | 0.00576 ± 0.00058 s⁻¹ | 1750 ± 550 µM | 0.000349 ± 8.8e-05 s⁻¹ |
| U46G C71A | 0.00159 ± 0.00031 s⁻¹ | 5.65e-05 ± 1.3e-05 s⁻¹ | 0.000943 ± 0.00016 s⁻¹ | 0.000985 ± 0.00028 s⁻¹ | 0.00143 ± 0.00019 s⁻¹ | 935 ± 350 µM | – |
| U46G C71G | 0.000535 ± 0.00017 s⁻¹ | 4.15e-05 ± 1.4e-05 s⁻¹ | 0.000392 ± 7.6e-05 s⁻¹ | 0.000849 ± 0.00013 s⁻¹ | 0.000435 ± 5.5e-05 s⁻¹ | – | 5.99e-05 ± 1.8e-05 s⁻¹ |
| G44C A52G | < 1e-05 s⁻¹ | < 1e-05 s⁻¹ | < 1e-05 s⁻¹ | – | – | 279 ± 110 µM | < 1e-05 s⁻¹ |
| U45C U54C | 0.00224 ± 0.00051 s⁻¹ | – | 0.00057 ± 0.00012 s⁻¹ | 0.00105 ± 0.00023 s⁻¹ | 0.00213 ± 0.00063 s⁻¹ | 2240 ± 770 µM | 0.000142 ± 3.9e-05 s⁻¹ |
| U45A U46C | 0.0497 ± 0.021 s⁻¹ | 0.000726 ± 0.00015 s⁻¹ | – | 0.0334 ± 0.017 s⁻¹ | 0.0365 ± 0.012 s⁻¹ | 3030 ± 1500 µM | 0.00197 ± 0.00065 s⁻¹ |
| U47A C70A | 0.000263 ± 6.7e-05 s⁻¹ | – | 0.000122 ± 1.9e-05 s⁻¹ | 0.000186 ± 3.4e-05 s⁻¹ | – | 858 ± 410 µM | 3.52e-05 ± 1.2e-05 s⁻¹ |
| U46A U56C | 0.0005 ± 4.2e-05 s⁻¹ | – | 0.000158 ± 3.2e-05 s⁻¹ | 0.000362 ± 8.4e-05 s⁻¹ | 0.000424 ± 8.3e-05 s⁻¹ | 1350 ± 250 µM | – |
| U46C A48C | 0.000204 ± 4.7e-05 s⁻¹ | – | – | 8.54e-05 ± 2.8e-05 s⁻¹ | 0.000136 ± 2.8e-05 s⁻¹ | – | – |
| U46G C58G | 2.68e-05 ± 1.4e-06 s⁻¹ | – | – | – | 2.44e-05 ± 1.2e-05 s⁻¹ | 892 ± 260 µM | < 1e-05 s⁻¹ |
| U46G C58A | 0.000164 ± 4e-05 s⁻¹ | < 1e-05 s⁻¹ | – | 3.08e-05 ± 1.2e-05 s⁻¹ | 8.21e-05 ± 1.1e-05 s⁻¹ | – | – |
| U45A G66U | 0.00194 ± 0.00019 s⁻¹ | 4.15e-05 ± 1.3e-05 s⁻¹ | 0.000508 ± 0.0001 s⁻¹ | 0.00104 ± 0.00022 s⁻¹ | 0.0016 ± 0.00026 s⁻¹ | 2090 ± 330 µM | 0.000117 ± 3.4e-05 s⁻¹ |
| U45A C71G | 0.00102 ± 0.00046 s⁻¹ | 0.000108 ± 2e-05 s⁻¹ | 0.000442 ± 9.7e-05 s⁻¹ | 0.00123 ± 0.00059 s⁻¹ | 0.00177 ± 0.00039 s⁻¹ | – | 0.00023 ± 8.2e-05 s⁻¹ |
| U45A U69G | 6.38e-05 ± 2e-05 s⁻¹ | – | 5.46e-05 ± 1.9e-05 s⁻¹ | 0.000109 ± 3.2e-05 s⁻¹ | – | – | – |
| G44U A53G | 0.000308 ± 2.1e-05 s⁻¹ | – | – | 0.000223 ± 6e-05 s⁻¹ | 0.00028 ± 3.8e-05 s⁻¹ | 997 ± 240 µM | 3.95e-05 ± 1.8e-05 s⁻¹ |
| U45A A53G | 0.0342 ± 0.011 s⁻¹ | 0.002 ± 0.00022 s⁻¹ | 0.0131 ± 0.0026 s⁻¹ | – | 0.0473 ± 0.012 s⁻¹ | 692 ± 270 µM | 0.00536 ± 0.0026 s⁻¹ |
| U46G G66U C67U | 0.000249 ± 2.4e-05 s⁻¹ | – | 0.000128 ± 3e-05 s⁻¹ | 0.000172 ± 6.1e-05 s⁻¹ | 0.00023 ± 3.9e-05 s⁻¹ | 804 ± 230 µM | – |
| G44C C67U | 0.00192 ± 0.00015 s⁻¹ | 5.1e-05 ± 1.3e-05 s⁻¹ | 0.000532 ± 0.00011 s⁻¹ | 0.00109 ± 0.00024 s⁻¹ | 0.00168 ± 0.0003 s⁻¹ | 1700 ± 200 µM | 0.000153 ± 3.2e-05 s⁻¹ |
| U46G G66U | 0.000756 ± 0.00014 s⁻¹ | – | 0.000177 ± 2.9e-05 s⁻¹ | 0.000448 ± 8e-05 s⁻¹ | 0.000578 ± 8.8e-05 s⁻¹ | 2360 ± 740 µM | 3.38e-05 ± 1.2e-05 s⁻¹ |
| G44A C67G | 0.000462 ± 7e-05 s⁻¹ | – | 0.000128 ± 1.5e-05 s⁻¹ | 0.000355 ± 3.8e-05 s⁻¹ | 0.000371 ± 3e-05 s⁻¹ | 1700 ± 580 µM | 2.41e-05 ± 1e-05 s⁻¹ |
| G44U | 0.000429 ± 5.3e-05 s⁻¹ | – | 0.000101 ± 2.1e-06 s⁻¹ | 0.000282 ± 6.2e-06 s⁻¹ | 0.000335 ± 6.6e-06 s⁻¹ | 2040 ± 470 µM | 2.34e-05 ± 1.7e-06 s⁻¹ |
| G44C | 0.0002 ± 2.4e-05 s⁻¹ | – | 4.33e-05 ± 1.8e-06 s⁻¹ | 0.000127 ± 2.9e-06 s⁻¹ | 0.000159 ± 3.5e-06 s⁻¹ | 1980 ± 570 µM | – |
| G44A | 0.00053 ± 6.3e-05 s⁻¹ | – | 0.000135 ± 3e-06 s⁻¹ | 0.000389 ± 1e-05 s⁻¹ | 0.000426 ± 8.1e-06 s⁻¹ | 1820 ± 420 µM | 3.7e-05 ± 2.4e-06 s⁻¹ |
| G44U U45A | 0.000658 ± 0.00016 s⁻¹ | – | 0.000175 ± 3.5e-05 s⁻¹ | 0.000478 ± 9.7e-05 s⁻¹ | 0.00046 ± 0.00014 s⁻¹ | 1820 ± 740 µM | – |
| G44A U65A | 0.000154 ± 9.6e-06 s⁻¹ | – | 6.51e-05 ± 2.8e-05 s⁻¹ | 0.000133 ± 3.6e-05 s⁻¹ | 0.000139 ± 2e-05 s⁻¹ | 828 ± 240 µM | – |
| U45C U65A C67G | 0.00116 ± 0.00022 s⁻¹ | 3.4e-05 ± 1.6e-05 s⁻¹ | 0.000279 ± 0.0001 s⁻¹ | – | 0.000996 ± 0.00022 s⁻¹ | 1660 ± 630 µM | – |
